Results as given in the supplement of paper PMC5998384.

Legend:
HeLa Kyoto [1] = assay: melting temperature (median over replicates), in situ; higher = more thermally stable
HeLa Kyoto [2] = assay: thermal stability score vs G1/S (z-score of summed log2 fold changes over temperatures); higher = more thermally stable than in G1/S
[3] = cell cycle stage: early G1 (4.5 h after nocodazole release)
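Throughout, for melting temperature (median over replicates), in situ: HeLa Kyoto cells synchronized by double thymidine or nocodazole block, proteins quantified by TMT10plex mass spectrometry, three independent biological replicates.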
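Throughout, for thermal stability score vs G1/S (z-score of summed log2 fold changes over temperatures): synchronized HeLa Kyoto cells, proteins quantified by TMT10plex mass spectrometry, three biological replicates, mitosis taken 0.5 h after nocodazole release, G1/S directly after double thymidine block.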

Sequence	melting temperature (HeLa Kyoto [1]; cell cycle stage: G1/S)	melting temperature (HeLa Kyoto [1]; cell cycle stage: mitosis)	thermal stability score (HeLa Kyoto [2]; [3])	thermal stability score (HeLa Kyoto [2]; cell cycle stage: mitosis)
MAARRRRSTGGGRARALNESKRVNNGNTAPEDSSPAKKTRRCQRQESKKMPVAGGKANKDRTEDKQDGMPGRSWASKRVSESVKALLLKGKAPVDPECTAKVGKAHVYCEGNDVYDVMLNQTNLQFNNNKYYLIQLLEDDAQRNFSVWMRWGRVGKMGQHSLVACSGNLNKAKEIFQKKFLDKTKNNWEDREKFEKVPGKYDMLQMDYATNTQDEEETKKEESLKSPLKPESQLDLRVQELIKLICNVQAMEEMMMEMKYNTKKAPLGKLTVAQIKAGYQSLKKIEDCIRAGQHGRALMEACNEFYTRIPHDFGLRTPPLIRTQKELSEKIQLLEALGDIEIAIKLVKTELQSPEHPLDQHYRNLHCALRPLDHESYEFKVISQYLQSTHAPTHSDYTMTLLDLFEVEKDGEKEAFREDLHNRMLLWHGSRMSNWVGILSHGLRIAPPEAPITGYMFGKGIYFADMSSKSANYCFASRLKNTGLLLLSEVALGQCNELLEANPKAEGLLQGKHSTKGLGKMAPSSAHFVTLNGSTVPLGPASDTGILNPDGYTLNYNEYIVYNPNQVRMRYLLKVQFNFLQLW [PARP2]	47.1 °C	50.5 °C	1.04	1.69
MAASGPGCRSWCLCPEVPSATFFTALLSLLVSGPRLFLLQQPLAPSGLTLKSEALRNWQVYRLVTYIFVYENPISLLCGAIIIWRFAGNFERTVGTVRHCFFTVIFAIFSAIIFLSFEAVSSLSKLGEVEDARGFTPVAFAMLGVTTVRSRMRRALVFGMVVPSVLVPWLLLGASWLIPQTSFLSNVCGLSIGLAYGLTYCYSIDLSERVALKLDQTFPFSLMRRISVFKYVSGSSAERRAAQSRKLNPVPGSYPTQSCHPHLSPSHPVSQTQHASGQKLASWPSCTPGHMPTLPPYQPASGLCYVQNHFGPNPTSSSVYPASAGTSLGIQPPTPVNSPGTVYSGALGTPGAAGSKESSRVPMP [RHBDD2]		52.5 °C	-1.05	-1.48
MAFLGLFSLLVLQSMATGATFPEEAIADLSVNMYNRLRATGEDENILFSPLSIALAMGMMELGAQGSTQKEIRHSMGYDSLKNGEEFSFLKEFSNMVTAKESQYVMKIANSLFVQNGFHVNEEFLQMMKKYFNAAVNHVDFSQNVAVANYINKWVENNTNNLVKDLVSPRDFDAATYLALINAVYFKGNWKSQFRPENTRTFSFTKDDESEVQIPMMYQQGEFYYGEFSDGSNEAGGIYQVLEIPYEGDEISMMLVLSRQEVPLATLEPLVKAQLVEEWANSVKKQKVEVYLPRFTVEQEIDLKDVLKALGITEIFIKDANLTGLSDNKEIFLSKAIHKSFLEVNEEGSEAAAVSGMIAISRMAVLYPQVIVDHPFFFLIRNRRTGTILFMGRVMHPETMNTSGHDFEEL [SERPINI1]	57 °C	57.8 °C	0.548	1.27
MAMWNRPCQRLPQQPLVAEPTAEGEPHLPTGRELTEANRFAYAALCGISLSQLFPEPEHSSFCTEFMAGLVQWLELSEAVLPTMTAFASGLGGEGADVFVQILLKDPILKDDPTVITQDLLSFSLKDGHYDARARVLVCHMTSLLQVPLEELDVLEEMFLESLKEIKEEESEMAEASRKKKENRRKWKRYLLIGLATVGGGTVIGVTGGLAAPLVAAGAATIIGSAGAAALGSAAGIAIMTSLFGAAGAGLTGYKMKKRVGAIEEFTFLPLTEGRQLHITIAVTGWLASGKYRTFSAPWAALAHSREQYCLAWEAKYLMELGNALETILSGLANMVAQEALKYTVLSGIVAALTWPASLLSVANVIDNPWGVCLHRSAEVGKHLAHILLSRQQGRRPVTLIGFSLGARVIYFCLQEMAQEKDCQGIIEDVILLGAPVEGEAKHWEPFRKVVSGRIINGYCRGDWLLSFVYRTSSVQLRVAGLQPVLLQDRRVENVDLTSVVSGHLDYAKQMDAILKAVGIRTKPGWDEKGLLLAPGCLPSEEPRQAAAAASSGETPHQVGQTQGPISGDTSKLAMSTDPSQAQVPVGLDQSEGASLPAAASPERPPICSHGMDPNPLGCPDCACKTQGPSTGLD [TMCO4]		53.7 °C	-0.364	0.512
MAVAAAAAAGPVFWRRLLGLLPGRPGLAALLGRLSDRLGRNRDRQRRRSPWLLLAPLLSPAVPQVTSPPCCLCPEGVHRFQWIRNLVPEFGVSSSHVRVLSSPAEFFELMKGQIRVAKRRVVMASLYLGTGPLEQELVDCLESTLEKSLQAKFPSNLKVSILLDFTRGSRGRKNSRTMLLPLLRRFPEQVRVSLFHTPHLRGLLRLLIPERFNETIGLQHIKVYLFDNSVILSGANLSDSYFTNRQDRYVFLQDCAEIADFFTELVDAVGDVSLQLQGDDTVQVVDGMVHPYKGDRAEYCKAANKRVMDVINSARTRQQMLHAQTFHSNSLLTQEDAAAAGDRRPAPDTWIYPLIQMKPFEIQIDEIVTETLLTEAERGAKVYLTTGYFNLTQAYMDLVLGTRAEYQILLASPEVNGFFGAKGVAGAIPAAYVHIERQFFSEVCSLGQQERVQLQEYWRRGWTFHAKGLWLYLAGSSLPCLTLIGSPNFGYRSVHRDLEAQIAIVTENQALQQQLHQEQEQLYLRSGVVSSATFEQPSRQVKLWVKMVTPLIKNFF [PGS1]	53.2 °C	53.2 °C	0.0742	-0.577
MEHFDASLSTYFKALLGPRDTRVKGWFLLDNYIPTFICSVIYLLIVWLGPKYMRNKQPFSCRGILVVYNLGLTLLSLYMFCELVTGVWEGKYNFFCQGTRTAGESDMKIIRVLWWYYFSKLIEFMDTFFFILRKNNHQITVLHVYHHASMLNIWWFVMNWVPCGHSYFGATLNSFIHVLMYSYYGLSSVPSMRPYLWWKKYITQGQLLQFVLTIIQTSCGVIWPCTFPLGWLYFQIGYMISLIALFTNFYIQTYNKKGASRRKDHLKDHQNGSMAAVNGHTNSFSPLENNVKPRKLRKD [ELOVL5]	53.3 °C	53.7 °C	-0.682	-0.967
MGKVWKQQMYPQYATYYYPQYLQAKQSLVPAHPMAPPSPSTTSSNNNSSSSSNSGWDQLSKTNLYIRGLPPHTTDQDLVKLCQPYGKIVSTKAILDKTTNKCKGYGFVDFDSPAAAQKAVSALKASGVQAQMAKQQEQDPTNLYISNLPLSMDEQELENMLKPFGQVISTRILRDSSGTSRGVGFARMESTEKCEAVIGHFNGKFIKTPPGVSAPTEPLLCKFADGGQKKRQNPNKYIPNGRPWHREGEVRLAGMTLTYDPTTAAIQNGFYPSPYSIATNRMITQTSITPYIASPVSAYQVQSPSWMQPQPYILQHPGAVLTPSMEHTMSLQPASMISPLAQQMSHLSLGSTGTYMPATSAMQGAYLPQYAHMQTTAVPVEEASGQQQVAVETSNDHSPYTFQPNK [RBMS1]	53.4 °C	52.4 °C	-0.758	-1.24
MISLTDTQKIGMGLTGFGVFFLFFGMILFFDKALLAIGNVLFVAGLAFVIGLERTFRFFFQKHKMKATGFFLGGVFVVLIGWPLIGMIFEIYGFFLLFRGFFPVVVGFIRRVPVLGSLLNLPGIRSFVDKVGESNNMV [GOLT1B]	59 °C	54.6 °C	-3.12	-4.7
MKSVIYHALSQKEANDSDVQPSGAQRAEAFVRAFLKRSTPRMSPQAREDQLQRKAVVLEYFTRHKRKEKKKKAKGLSARQRRELRLFDIKPEQQRYSLFLPLHELWKQYIRDLCSGLKPDTQPQMIQAKLLKADLHGAIISVTKSKCPSYVGITGILLQETKHIFKIITKEDRLKVIPKLNCVFTVETDGFISYIYGSKFQLRSSERSAKKFKAKGTIDL [POP4]	52.4 °C		-1.07	-2.15
MLTTLLPILLLSGWAFCSQDASDGLQRLHMLQISYFRDPYHVWYQGNASLGGHLTHVLEGPDTNTTIIQLQPLQEPESWARTQSGLQSYLLQFHGLVRLVHQERTLAFPLTIRCFLGCELPPEGSRAHVFFEVAVNGSSFVSFRPERALWQADTQVTSGVVTFTLQQLNAYNRTRYELREFLEDTCVQYVQKHISAENTKGSQTSRSYTSLVLGVLVGSFIIAGVAVGIFLCTGGRRC [PROCR]	59.1 °C	57.1 °C	1.63	0.816
MPSPQLLVLFGSQTGTAQDVSERLGREARRRRLGCRVQALDSYPVVNLINEPLVIFVCATTGQGDPPDNMKNFWRFIFRKNLPSTALCQMDFAVLGLGDSSYAKFNFVAKKLHRRLLQLGGSALLPVCLGDDQHELGPDAAVDPWLRDLWDRVLGLYPPPPGLTEIPPGVPLPSKFTLLFLQEAPSTGSEGQRVAHPGSQEPPSESKPFLAPMISNQRVTGPSHFQDVRLIEFDILGSGISFAAGDVVLIQPSNSAAHVQRFCQVLGLDPDQLFMLQPREPDVSSPTRLPQPCSMRHLVSHYLDIASVPRRSFFELLACLSLHELEREKLLEFSSAQGQEELFEYCNRPRRTILEVLCDFPHTAAAIPPDYLLDLIPVIRPRAFSIASSLLTHPSRLQILVAVVQFQTRLKEPRRGLCSSWLASLDPGQGPVRVPLWVRPGSLAFPETPDTPVIMVGPGTGVAPFRAAIQERVAQGQTGNFLFFGCRWRDQDFYWEAEWQELEKRDCLTLIPAFSREQEQKVYVQHRLRELGSLVWELLDRQGAYFYLAGNAKSMPADVSEALMSIFQEEGGLCSPDAAAYLARLQQTRRFQTETWA [NDOR1]	52.6 °C		-0.788	-0.432
MSEGDSVGESVHGKPSVVYRFFTRLGQIYQSWLDKSTPYTAVRWVVTLGLSFVYMIRVYLLQGWYIVTYALGIYHLNLFIAFLSPKVDPSLMEDSDDGPSLPTKQNEEFRPFIRRLPEFKFWHAATKGILVAMVCTFFDAFNVPVFWPILVMYFIMLFCITMKRQIKHMIKYRYIPFTHGKRRYRGKEDAGKAFAS [RER1]	55.1 °C	55.5 °C	-0.257	-1.81
MSEKSVEAAAELSAKDLKEKKEKVEEKASRKERKKEVVEEEENGAEEEEEETAEDGEEEDEGEEEDEEEEEEDDEGPALKRAAEEEDEADPKRQKTENGASA [PTMS]	55.5 °C	51.9 °C	-1.16	-2.62
MSRLLPLLRSRTARSLRPGPAAAAAPRPPSWCCCGRGLLALAPPGGLPGGPRRLGTHPKKEPMEALNTAQGARDFIYSLHSTERSCLLKELHRFESIAIAQEKLEAPPPTPGQLRYVFIHNAIPFIGFGFLDNAIMIVAGTHIEMSIGIILGISTMAAAALGNLVSDLAGLGLAGYVEALASRLGLSIPDLTPKQVDMWQTRLSTHLGKAVGVTIGCILGMFPLIFFGGGEEDEKLETKS [TMEM65]	55.5 °C	55.9 °C	0.563	0.332
MTSALENYINRTVAVITSDGRMIVGTLKGFDQTINLILDESHERVFSSSQGVEQVVLGLYIVRGDNVAVIGEIDEETDSALDLGNIRAEPLNSVAH [LSM8]	57.1 °C	57.5 °C	-1.46	-3.54
MVAPVWYLVAAALLVGFILFLTRSRGRAASAGQEPLHNEELAGAGRVAQPGPLEPEEPRAGGRPRRRRDLGSRLQAQRRAQRVAWAEADENEEEAVILAQEEEGVEKPAETHLSGKIGAKKLRKLEEKQARKAQREAEEAEREERKRLESQREAEWKKEEERLRLEEEQKEEEERKAREEQAQREHEEYLKLKEAFVVEEEGVGETMTEEQSQSFLTEFINYIKQSKVVLLEDLASQVGLRTQDTINRIQDLLAEGTITGVIDDRGKFIYITPEELAAVANFIRQRGRVSIAELAQASNSLIAWGRESPAQAPA [DDRGK1]	52.9 °C	52.9 °C	-0.767	-0.701
MVPGAAGWCCLVLWLPACVAAHGFRIHDYLYFQVLSPGDIRYIFTATPAKDFGGIFHTRYEQIHLVPAEPPEACGELSNGFFIQDQIALVERGGCSFLSKTRVVQEHGGRAVIISDNAVDNDSFYVEMIQDSTQRTADIPALFLLGRDGYMIRRSLEQHGLPWAIISIPVNVTSIPTFELLQPPWTFW [PRADC1]	53.8 °C	52.7 °C	-2.33	-2.03
